B1: Efemp1 (protein, UniProt Q8BPB5 18-493, looked up)
EGF-containing fibulin-like …: QYTEETITYTQCTDGYEWDPIRQQCKDIDECDIVPDACKGGMKCVNHYGGYLCLPKTAQIIVNNEHPQQETPAAEASSGATTGTVAARSMATSGVVPGGGFMASATAVAGPEVQTGRNNFVIRRNPADPQRIPSNPSHRIQCAAGYEQSEHNVCQDIDECTSGTHNCRTDQVCINLRGSFTCQCLPGYQKRGEQCVDIDECTVPPYCHQRCVNTPGSFYCQCSPGFQLAANNYTCVDINECDASNQCAQQCYNILGSFICQCNQGYELSSDRLNCEDIDECRTSSYLCQYQCVNEPGKFSCMCPQGYEVVRSRTCQDINECETTNECREDEMCWNYHGGFRCYPRNPCQDHYVLTSENRCVCPVSNTMCRELPQSIVYKYMSIRSDRSVPSDIFQIQATMIYANTINTFRIKSGNENGEFYLRQTSPVSAMLVLVKSLSGPREYIVDLEMLTVSSIGTFRTSSVLRLTIIVGPFSF
B2: Atp6v1h (protein, UniProt Q8BVE3 1-483, looked up)
V-type proton ATPase subunit H: MTKMDIRGAVDAAVPTNIIAAKAAEVRANKVNWQSYLQGQMISAEDCEFIQRFEMKRSSEDKQEMLQTEGSQCAKTFINLMTHISKEQTVQYILTMVDDMLQENHQRVSIFFDYAKRSKSTAWPYFLPMLNRQDPFTVHMAARIIAKLAAWGKELMEGSDLNYYFNWIKTQLSSQKLRGSGVAVETGTISSSDSSQYVQCVAGCLQLMLRVNEYRFAWVEADGVNCIMGVLSNKCGFQLQYQMIFSIWLLAFSPQMCEHLRRYNIIPVLSDILQESVKEKVTRIILAAFRNFLEKSTERETRQEYALAMIQCKVLKQLENLEQQKYDDEDISEDIKFLLEKLGESVQDLSSFDEYSSELKSGRLEWSPVHKSEKFWRENAVRLNEKNYELLKILTKLLEVSDDPQVLAVAAHDVGEYVRHYPRGKRVIEQLGGKQLVMNHMHHEDQQVRYNALLAVQKLMVHNWEYLGKQLQSEQPQTAAARS
B3: Scfd1 (protein, UniProt Q8BRF7 1-639, looked up)
Sec1 family domain-containing …: MVGSKMAATASIRERQTVALKRMLNFNVPHVKNSTGEPVWKVLIYDRFGQDIISPLLSVKELRDMGITLHLLLHSDRDPIPDVPAVYFVMPTEENIDRLCQDLRNQLYESYYLNFISAISRSKLEDIANAALAASAVTQVAKVFDQYLNFITLEDDMFVLCNQNKELVSYRAINRPDITDTEMETVMDTIVDSLFCFFVTLGAVPIIRCSRGTAAEMVAVKLDKKLRENLRDARNSLFTGDPLGTGQFSFQRPLLVLVDRNIDLATPLHHTWTYQALVHDVLDFHLNRVNLEESTGVENSPAGARPKRKNKKSYDLTPVDKFWQKHKGSPFPEVAESVQQELESYRAQEDEVKRLKSIMGLEGEDEGAISMLSDNTAKLTSAVSSLPELLEKKRLIDLHTNVATAVLEHIKARKLDVYFEYEEKIMSKTTLDKSLLDVISDPDAGTPEDKMRLFLIYYISAQQAPSEVDLEQYKKALTDAGCNLSPLQYIKQWKAFAKMASTPASYGNTTTKPMGLLSRVMNTGSQFVMEGVKNLVLKQQNLPVTRILDNLMEMKSNPETDDYRYFDPKMLRSNDSSVPRNKSPFQEAIVFVVGGGNYIEYQNLVDYIKAKQGKHILYGCSEIFNATQFIKQLSQLGQK
B4: Sec31a (protein, UniProt Q3UPL0 1-1230, looked up)
Protein transport protein …: MKLKEIDRTAMQAWSPAQNHPIYLATGTSAQQLDATFSTNASLEIFELDLSDPSLDMKSCATFSSSHRYHKLIWGPHKMDSKGDVSGVLIAGGENGNIILYDPSKIIAGDKEVVIAQKDKHTGPVRALDVNIFQTNLVASGANESEIYIWDLNNFATPMTPGAKTQPPEDISCIAWNRQVQHILASASPSGRATVWDLRKNEPIIKVSDHSNRMHCSGLAWHPDVATQMVLASEDDRLPVIQMWDLRFASSPLRVLENHARGILAVAWSMADPELLLSCGKDAKILCSNPNTGEVLYELPTNTQWCFDIQWCPRNPAVLSAASFDGRISVYSIMGGSIDGLRQKQVDKLSSSFGNLDPFGTGQPLPPLQIPQQSAQHSIVLPLKKPPKWIRRPVGASFSFGGKLVTFESVAVPLQQGAEQQRRQPVFISQVVTEKDFLNRSAQLQHAVQSQGFIGYCQKKIEASQTEFEKNVWSFLKVNFEEDSRGKYLELLGYRKEDLGQKIALALNKVDGPDVALKDSDQVAQSDGEESPAAEEQLLGERIKEEKQECDFLPSAGGTFNISVSGDIDGLITRALLTGNFESAVDLCLHDNRMADAIILAIAGGQELLAQTQKKYFAKSQSKITRLITAVVMKNWREIVESCDLKNWREALAAVLTYAKPDEFSALCDLLGTRLEREGDSLLRTQACLCYICAGNVERLVACWTKAQDGSSPLSLQDLIEKVVILRKAVQLTQALDTNTVGALLAEKMSQYASLLAAQGSIAAALAFLPDNTNQPNIVQLRDRLCKAQGKPVSGQESSQSPYERQPLSKGRPGPVAGHSQMPRVQTQQYYPHGENPPPPGFIMQGNVIPNPAAPLPTAPGHMPSQLPPYPQPQPYQPAQQYSFGTGGAAAYRPQQPVAPPASNAYPNTPYISPVASYSGQPQMYTAQQASSPTSSSAASFPPPSSGASFQHGGPGAPPSSSAYALPPGTTGTPPAASELPASQRTENQSFQDQASILEGPQNGWNDPPALNRVPKKKKMPENFMPPVPITSPIMNPSGDPQSQGLQQQPSTPGPLSSHASFPQQHLAGGQPFHGVQQPLAQTGMPPSFSKPNTEGAPGAPIGNTIQHVQALPTEKITKKPIPEEHLILKTTFEDLIQRCLSSATDPQTKRKLDDASKRLEFLYDKLREQTLSPTIINGLHSIARSIETRNYSEGLSVHTHIVSTSNFSETSAFMPVLKVVLSQASKLGV
B5: Mri1 (protein, UniProt Q9CQT1 1-369, looked up)
Methylthioribose-1-phosphate …: MTLEAIRYSPGSLQILDQLQLPEHCHYEALSSVQQASEAIRAMKVRGAPAIALVGCLSLAVELRAGAGGPGLAALVAFVRDQLRLLVAARPTAVNMARAARDLGQVAAQEAEREGATEETVRERVIRFAEDMLEKDLKDNRSIGDLGARHLLEQTNPRGGKVTVLTHCNTGALATAGYGTALGVIRSLHEMGRLEHTFCTETRPYNQGARLTAFELVYEQIPATLITDSMAAAAMAHRGVSAVVVGADRVVANGDTANKIGTYQLAIVAKHHGVPFYVAAPSSSCDLHLETGKEIVIEERPSQELTDLNGVRIAAQGIRVWNPAFDVTPHELITGGIITELGVFAPEELRGALSASVFSEGQTLDSPWV
B6: Hsd17b4 (protein, UniProt P51660 1-735, looked up)
Peroxisomal multifunctional …: MASPLRFDGRVVLVTGAGGGLGRAYALAFAERGALVIVNDLGGDFKGIGKGSSAADKVVAEIRRKGGKAVANYDSVEAGEKLVKTALDTFGRIDVVVNNAGILRDRSFSRISDEDWDIIHRVHLRGSFQVTRAAWDHMKKQNYGRILMTSSASGIYGNFGQANYSAAKLGILGLCNTLAIEGRKNNIHCNTIAPNAGSRMTETVLPEDLVEALKPEYVAPLVLWLCHESCEENGGLFEVGAGWIGKLRWERTLGAIVRKRNQPMTPEAVRDNWEKICDFSNASKPQTIQESTGGIVEVLHKVDSEGISPNRTSHAAPAATSGFVGAVGHKLPSFSSSYTELQSIMYALGVGASVKNPKDLKFVYEGSADFSCLPTFGVIVAQKSMMNGGLAEVPGLSFNFAKALHGEQYLELYKPLPRSGELKCEAVIADILDKGSGVVIVMDVYSYSGKELICYNQFSVFVVGSGGFGGKRTSEKLKAAVAVPNRPPDAVLRDATSLNQAALYRLSGDWNPLHIDPDFASVAGFEKPILHGLCTFGFSARHVLQQFADNDVSRFKAIKVRFAKPVYPGQTLQTEMWKEGNRIHFQTKVHETGDVVISNAYVDLVPASGVSTQTPSEGGELQSALVFGEIGRRLKSVGREVVKKANAVFEWHITKGGTVAAKWTIDLKSGSGEVYQGPAKGSADVTIIISDEDFMEVVFGKLDPQKAFFSGRLKARGNIMLSQKLQMILKDYAKL
B7: Mtap (protein, UniProt Q9CQ65 1-283, looked up)
S-methyl-5'-thioadenosine …: MASGSACTAVKIGIIGGTGLDDPEILEGRTEKYVDTPFGKPSDALILGKIKNVDCVLLARHGRQHTIMPSKVNYQANIWALKEEGCTHVIVTTACGSLREEIQPGDMVIIDQFIDRTSLRPQTFYDGSHCSARGVCHIPMAEPFCPKTREVLIETAKKLGLRCHSKGTIVTIEGPRFSSRAESLIFRTWGADVVNMTTVPEVVLAKEAGICYASIAMATDYDCWKEHEEAVSVDGVLKTMKENANKAKSLLLTTIPQIGSMEWSETLRNLKNMAQFSVLPPRH

These molecules were tested on DYT-TOR1A MEF EVs (assay: Quantitative LC-MS/MS proteomics of EVs from drug-treated DYT-TOR1A MEF cultures (ritonavir, salubrinal)). Conditions: EV protein abundance, DYT + RTV (ritonavir) vs DYT, direction compared with DYT/WT.
Type: cell-based, mouse
Parameters: key to RTV Corrective Direction / RTV Corrective Direction, Grwd1 / RTV Corrective Direction, Srrm2 / RTV Corrective Direction, Rbm17 / RTV Corrective Direction, Dcaf8 / RTV Corrective Direction, Edil3 / RTV Corrective Direction, Timp3 / RTV Corrective Direction, Heatr3 / RTV Corrective Direction, Brd4 / RTV Corrective Direction, P3h4 / RTV Corrective Direction, Pacsin3 / RTV Corrective Direction, Naa50 / RTV Corrective Direction, Lpar6 / RTV Corrective Direction, Ndrg1 / RTV Corrective Direction, Kntc1 / RTV Corrective Direction, Cdk11b / RTV Corrective Direction, Sumo1 / RTV Corrective Direction, Lsm4 / RTV Corrective Direction, Hmga2 / RTV Corrective Direction, Cstf1 / RTV Corrective Direction, Tes / RTV Corrective Direction, Sbno1 / RTV Corrective Direction, Unc119b / RTV Corrective Direction, Cfdp1 / RTV Corrective Direction, Sec61b: YES = protein abundance effect opposite to DYT/WT
For B1, the “RTV Corrective Direction” value was “YES”.
In the case of B2, the “RTV Corrective Direction” value is reported as “YES”.
In the case of B3, the “RTV Corrective Direction” value is reported as “YES”.
In the case of B4, the “RTV Corrective Direction” value is reported as “YES”.
In the case of B5, the “RTV Corrective Direction” value is reported as “YES”.
For B6, the “RTV Corrective Direction” value was “YES”.
In the case of B7, the “RTV Corrective Direction” value is reported as “YES”.

Same assay, conditions: EV protein abundance, ritonavir (RTV)-treated DYT vs DYT
In the case of B1, the “DYT + RTV/DYT Cohen's d” value is reported as −4.60.
With B2 the “DYT + RTV/DYT Cohen's d” value was 4.82.
In the case of B3, the “DYT + RTV/DYT Cohen's d” value is reported as 4.43.
B4 was tested, and the “DYT + RTV/DYT Cohen's d” value was 5.50.
In the case of B5, the “DYT + RTV/DYT Cohen's d” value is reported as 5.85.
With B6 the “DYT + RTV/DYT Cohen's d” value was 4.01.
With B7 the “DYT + RTV/DYT Cohen's d” value was 3.50.

What follows are molecules tested on WT MEF EVs (assay: Quantitative LC-MS/MS proteomics of EVs from ISRIB-treated WT MEF cultures). Conditions: EV protein abundance, ISRIB-treated WT vs WT.
Type: cell-based, mouse
Parameters: key to ISRIB and DYT Parallel Direction / ISRIB and DYT Parallel Direction, Ctdsp1 / ISRIB and DYT Parallel Direction, Pcdh19 / ISRIB and DYT Parallel Direction, Tspan7 / ISRIB and DYT Parallel Direction, Myo1e / ISRIB and DYT Parallel Direction, Plpp3 / ISRIB and DYT Parallel Direction, Sh3bp4 / ISRIB and DYT Parallel Direction, Dnajc7 / ISRIB and DYT Parallel Direction, Drg1 / ISRIB and DYT Parallel Direction, Maea: YES = protein abundance effect similar to DYT/WT
For B1, the “WT + ISRIB/WT Cohen's d” value was 0.07.
For B2, the “WT + ISRIB/WT Cohen's d” value was −0.66.
With B3 the “WT + ISRIB/WT Cohen's d” value was −2.48.
With B4 the “WT + ISRIB/WT Cohen's d” value was −1.34.
B5 was tested, and the “WT + ISRIB/WT Cohen's d” value was −0.01.
In the case of B6, the “WT + ISRIB/WT Cohen's d” value is reported as −2.20.
For B7, the “WT + ISRIB/WT Cohen's d” value was −0.85.

Same assay, conditions: EV protein abundance, WT + ISRIB vs WT, direction compared with DYT/WT
In the case of B1, the “ISRIB and DYT Parallel Direction” value is reported as “YES”.
B2 was tested, and the “ISRIB and DYT Parallel Direction” value was “YES”.
With B3 the “ISRIB and DYT Parallel Direction” value was “YES”.
B4 was tested, and the “ISRIB and DYT Parallel Direction” value was “YES”.
B5 was tested, and the “ISRIB and DYT Parallel Direction” value was “YES”.
For B6, the “ISRIB and DYT Parallel Direction” value was “YES”.
B7 was tested, and the “ISRIB and DYT Parallel Direction” value was “YES”.
